The test addresses Myo1^IQ12-FRET protein (CyPet and YPet separated by both Myo1 IQ motifs) (S. pombe). In words: FRET or BRET; Cam1 or ^ACECam1 titrated into 0.5 µM Myo1^IQ12-FRET protein in solution, absence of calcium; % change in donor CyPet fluorescence (excitation 435 nm); 140 mM KCl, 2 mM MgCl2, 20 mM MOPS pH 7.0, 2 mM EGTA; two binding events fitted.

The record followed here is publication PMC9303947.

Turning to “Cam1 (unacetylated Schizosaccharomyces pombe calmodulin) (from UniProt P05933 1-150) (natural protein)”, the affinity of the first binding event is below 0.1 µM and the affinity of the second binding event was found to be 1.47 µM.
As for “^ACECam1 (amino-terminally acetylated Schizosaccharomyces pombe calmodulin) (from UniProt P05933 1-150) (natural protein)”, the affinity of the first binding event was below 0.1 µM and the affinity of the second binding event turned out to be 0.68 µM.
